# Tests used:
# Test in all cases: IEDB peptide-MHC binding, purified MHC/competitive/radioactivity; filed as Kd, often an IC50 or EC50 that approximates it; ≥ and ≤ were set here for values at or beyond the usual limits of such assays
# HLA-A*02:03 = biological target: HLA-A*02:03
# HLA-A*02:06 = biological target: HLA-A*02:06
# HLA-A*02:02 = biological target: HLA-A*02:02
# HLA-A*31:01 = settings: source organism: Vaccinia virus WR
# HLA-A*11:01 = settings: source organism: Vaccinia virus WR
# HLA-A*68:01 = settings: source organism: Vaccinia virus WR
# HLA-A*33:01 = settings: source organism: Vaccinia virus WR
# HLA-A*03:01 = settings: source organism: Vaccinia virus WR
# [1] = source organism: Vaccinia virus WR
# [2] = source organism: SARS coronavirus Tor2
# [3] = source organism: Mammarenavirus machupoense
# [4] = source organism: Mammarenavirus brazilense
# [5] = source organism: Lymphocytic choriomeningitis virus (strain Armstrong)
Sequence,Kd (HLA-A*02:03; [1]),Kd (HLA-A*02:06; [1]),Kd (HLA-A*02:02; [1]),further results
AIFNNRNLA,98.1 nM,7.07 nM,272 nM,
AIFNNRNLAA,103 nM,774 nM,450 nM,
AISAVYFKA,525 nM,149 nM,3.65 nM,
ALLADKFPV,,,,Kd (HLA-A*02:03; [2]): 604 nM; Kd (HLA-A*02:06; [2]): 22.8 nM; Kd (HLA-A*02:02; [2]): 29.1 nM
ALVFLILCFT,,,,Kd (HLA-A*02:03; [2]): 1120 nM; Kd (HLA-A*02:06; [2]): 229 nM; Kd (HLA-A*02:02; [2]): 209 nM
AVIPFDDIV,241 nM,42.4 nM,313 nM,
AVSVYGAIT,9610 nM,14300 nM,11400 nM,
DINVIGLIVI,2810 nM,2790 nM,7150 nM,
DLTALLSCI,996 nM,4880 nM,5200 nM,
DMLLNVQTLI,161 nM,291 nM,41.6 nM,
DVIKSISSI,7520 nM,15000 nM,≥ 63800 nM,
EIRGVLPEET,4870 nM,≥ 20100 nM,9600 nM,
ETLPELNLSL,130 nM,134 nM,52.3 nM,
EVERLMELPV,1430 nM,3630 nM,2460 nM,
FIISTLNKIL,1.8 nM,8.1 nM,5080 nM,
FISSFLLPLT,44.2 nM,50.6 nM,38.6 nM,
FITVLTSVDI,237 nM,1270 nM,1420 nM,
FLLPSLATV,,,,Kd (HLA-A*02:03; [2]): 0.204 nM; Kd (HLA-A*02:06; [2]): 0.411 nM; Kd (HLA-A*02:02; [2]): 0.134 nM
FQESFYEDIA,555 nM,303 nM,2560 nM,
FTDCRTIDA,2680 nM,2710 nM,10900 nM,
FVDEFYAYL,,,,Kd (HLA-A*02:03; [2]): 2.62 nM; Kd (HLA-A*02:06; [2]): 0.36 nM; Kd (HLA-A*02:02; [2]): 0.0886 nM
FVFNGTSWFI,,,,Kd (HLA-A*02:03; [2]): 2.15 nM; Kd (HLA-A*02:06; [2]): 0.439 nM; Kd (HLA-A*02:02; [2]): 1.01 nM
GLSQFTHTV,,,,Kd (HLA-A*02:03; [3]): 7.65 nM; Kd (HLA-A*02:06; [3]): 332 nM; Kd (HLA-A*02:02; [3]): 5.28 nM

Sequence,Kd (HLA-A*02:03; [1]),Kd (HLA-A*02:06; [1]),Kd (HLA-A*02:02; [1]),further results
GLTTHCTKL,30 nM,≥ 31600 nM,100 nM,
HQIFGTAYGV,,,,Kd (HLA-A*02:06; source organism: Dengue virus 1 Nauru/West Pac/1974): 20.6 nM
HTNHSDISM,4140 nM,1200 nM,8810 nM,
IASAPQQLCT,≥ 70400 nM,8320 nM,≥ 53200 nM,
IIFWFSLEI,,,,Kd (HLA-A*02:03; [2]): 87 nM; Kd (HLA-A*02:06; [2]): 4.64 nM; Kd (HLA-A*02:02; [2]): 1.75 nM
IIMAINVFT,180 nM,10.3 nM,39.3 nM,
IIYSKAGNI,12.6 nM,13700 nM,9760 nM,
ILEYLYIMRV,83.2 nM,134 nM,73.5 nM,
ILSEKRKDTI,541 nM,≥ 69800 nM,≥ 44000 nM,
IMECSRMLDT,7200 nM,≥ 69800 nM,5240 nM,
IVAIDLDPV,,,,Kd (HLA-A*02:06; source organism: Dengue virus 1 Brazil/97-11/1997): 11.2 nM
IVDSMIIGHI,208 nM,561 nM,507 nM,
IVVALSSLV,3.85 nM,8.23 nM,26.7 nM,
KLIEYSDFA,,,,Kd (HLA-A*02:03; [2]): 0.534 nM; Kd (HLA-A*02:06; [2]): 0.705 nM; Kd (HLA-A*02:02; [2]): 0.0948 nM
KQYDSTDFKM,3270 nM,107 nM,8.38 nM,
LLEQLIENI,1960 nM,539 nM,702 nM,
LLPDALLFTL,,,,Kd (HLA-A*02:03; [4]): 732 nM; Kd (HLA-A*02:06; [4]): 78.9 nM; Kd (HLA-A*02:02; [4]): 4.72 nM
LNVSYLCHL,,,,Kd (HLA-A*02:03; [5]): 7100 nM; Kd (HLA-A*02:06; [5]): 13600 nM; Kd (HLA-A*02:02; [5]): 296 nM
MSPALFFTFL,,,,Kd (HLA-A*02:03; [4]): 7630 nM; Kd (HLA-A*02:06; [4]): 834 nM; Kd (HLA-A*02:02; [4]): 546 nM
NITRLEVIGL,95.1 nM,197 nM,907 nM,
NMCNSDVSV,30.3 nM,97 nM,80 nM,
NQILEENVEV,,,,Kd (HLA-A*02:06; source organism: Dengue virus 2 Jamaica/1409/1983): 56.1 nM
QLLRLMADK,,,,Kd (HLA-A*31:01): 2570 nM; Kd (HLA-A*11:01): 349 nM; Kd (HLA-A*68:01): ≥ 21.9 µM; Kd (HLA-A*33:01): ≥ 46.2 µM; Kd (HLA-A*03:01): 61.9 nM
